In PMC3564804, “A Visual Dual-Aptamer Logic Gate for Sensitive Discrimination of Prion Diseases-Associated Isoform with Reusable Magnetic Microparticles and Fluorescence Quantum Dots”:

Biological target: PrPC, native state (recombinant human prion protein) (human, UniProt P04156 23-231)

Row | Binder | binding signal [fluorescence ratio]
1 | CTTACGGTGGGGCAATT (ssDNA, 5'-NH2) [Apt1] | 2.41
2 | GTTTTGTTACAGTTCGTTTCTTTTCCCTGTCTTGTTTTGTTGTCT (ssDNA, 5'-biotin) [Apt2] | 2.41
